Results: the supplement of paper PMC9170038

Tested on: MS2 coat protein
Test: apparent KD of MS2 coat protein; designed switch direction (-1 OFF switch, 1 ON switch): 1; higher = weaker reporter binding
In short: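 Stalled E. coli RNA polymerase transcribed designed RNA switches on Illumina chips, which were then titrated with SNAP-549-labelled MS2 coat protein, doubling from 0.7 or 1.5 nM to 3 µM. Steps lasted from 0.8–1.5 h at the lowest concentration to 10–20 min at the highest. The apparent KD is each design's median over clusters of curve-fitted normalised fluorescence.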

[1] = input ligand: microRNA oligo, concentration not stated
[2] = Eterna round: R95, input ligand: FMN 200 uM
[3] = Eterna round: R95, input ligand: microRNA oligo, concentration not stated
[4] = Eterna round: R95, input ligand: none

Sequence | apparent KD of MS2 coat protein (input ligand: FMN 200 uM) [nM] | apparent KD of MS2 coat protein [1] [nM] | apparent KD of MS2 coat protein (input ligand: none) [nM] | apparent KD of MS2 coat protein [2] [nM] | apparent KD of MS2 coat protein [3] [nM] | apparent KD of MS2 coat protein [4] [nM]
ACAUGAGAGAUAGGAUAUCUUGUACCUACAUGUGACAUGAGGAUCACCCAUGUGGUAAGUAUGACAGAGAAGGAUCAGAUAUGU [Equivalance 70 - Jieux - Same State NG 2] (Eterna round: R96, puzzle: Same State NG 2) | 20.5 | 62.8 | 82.4 | – | – | –
ACAUGAGAGAUAGGAUAUUUUGUACCUACAUGUGACAUGAGGAUCACCCAUGUGGUAAGUAUGAGAAAGAAGGAUCAGAUAUGU [Equivalance 52 - Jieux - Same State NG 2] (Eterna round: R96, puzzle: Same State NG 2) | 26.3 | 63.7 | 79.8 | – | – | –
ACAUGAGAGUCAGGAUAUAUUGUACCUACAUGUGACAUGAGGAUCACCCAUGUGGUAAGUAUGACAUAGAAGGGAUAGAUAUGU [Equivalance 85 - Jieux - Same State NG 2] (Eterna round: R96, puzzle: Same State NG 2) | 62.7 | 60.4 | 79.2 | – | – | –
ACAUGAGAGUUAGGAUAUCUUGUACCUACAUGUGACAUGAGGAUCACCCAUGUGGUAAGUAUGAGGGAGAAGGAACAGAUAUGU [Equivalence 43 - Jieux - Same State NG 2] (Eterna round: R96, puzzle: Same State NG 2) | – | 27.3 | – | – | – | –
ACAUGAGAUAGAGGAUAUAUUGUACCUACAUGUGACAUGAGGAUCACCCAUGUGGUAAGUAUGACAUAGAAGGCUAAGAUAUGU [Equivalance 82 - Jieux - Same State NG 2] (Eterna round: R96, puzzle: Same State NG 2) | 28.7 | 55.6 | 73.9 | – | – | –
ACAUGAGAUUGAGGAUAUAUAGUACCUACAUGUGACAUGAGGAUCACCCAUGUGGUAAGUAUGACAUAGAAGGCAAAGAUAUGU [Equivalance 99 - Jieux - Same State NG 2] (Eterna round: R96, puzzle: Same State NG 2) | 35 | 37.6 | 50.6 | – | – | –
ACAUGAGGAUCACCCAUGUAUGCUCAGGAAACUGUGCAUCAUGAGGAUAUGGAUCCUAAUUGGAUCCAGAAGGCAUGUAUUAUU [Fiskers NG3ss - 28] (Eterna round: R96, puzzle: Same State NG 3) | 699 | 39.1 | 45 | – | – | –
ACAUUUAGCUCGUGCACAUGAGGAUCACCCAUGUUCGGUUCACAGGAUAUCUAGUCAAACGGAUUGGAGAAGGGUGGCAGGAGC [Gelegees] (Eterna round: R96, puzzle: Same State NG 3) | 35.7 | 128 | 215 | – | – | –
ACCAAUCCAAUAAAACAAGCGUGCUCGUCACAUGAGGAUCACCCAUGUUUAAGCGCUGUUCCUAAUUCCUCAGCGCC [Isoreder] (puzzle: Sensor for hsa-mir-208a) | – | – | – | 182 | 28.8 | 168
ACCCAAAGUAUAUGGGAACAAGCUUUUUAACAUGAGGAUCACCCAUGUGCUCGUCUUAUAAGCAGUCGAAAGACUGC [Sensor 100 - 7] (puzzle: Sensor for hsa-mir-208a) | – | – | – | 65.1 | – | 69
ACCCAAGGUAUAUGGGAACAAGCUUUUUAACAUGAGGAUCACCCAUGUACUCGUCUUAUAAGCAGUCGAAAGACUGC [Sensor 100 - 6] (puzzle: Sensor for hsa-mir-208a) | – | – | – | 619 | 16.1 | 831
ACCUUGUGGGUAGGAUAUUUAGGAUAUGCGGAAGACUAAGUCUGUAGGUCACCUAACGCAGAAGGAGAGAAGGACCCUUCAGCA [pwkr ssNG2 2FMN + F9.31] (Eterna round: R96, puzzle: Same State NG 2) | 109 | 3.66 | 4.74 | – | – | –
ACGCAGCUGGGCUAGGAUAUCGGUGGUAAAACAUGAGGAUCACCCAUGUCCGAAGCUCGGACUUCCGAGAAGGAGCCCGGCUGCG [Soinraesar Omei Mod 9] (puzzle: Same State 2) | – | – | – | 34.1 | 253 | 481
ACGCUAGUCACAGGAUAUCCGAAAUAUAGCAAAGGAGAAGGGUGAUUAACAUGAGGAUCACCCAUGUAAAAGAAGAAAGAAGAU [Edargebi] (Eterna round: R96, puzzle: Same State NG 1) | 173 | 167 | 186 | – | – | –
ACUUAGUACAAUUUAGAUCUACAUGAGGAUCACCCAUGUACUGAGGAUAUCAGCUCGAUUAGAGCUGAGAAGGCAGUAGUACUA [SSNG3/9-A2] (Eterna round: R96, puzzle: Same State NG 3) | 33.3 | 35 | 53.9 | – | – | –
ACUUGCUUUUUGCUCAUUUUUUGUCCGUAACAUGAGGAUCACCCAUGUGUAGAUUAUGUGUUGUUUUUGAUACGUGA [JR_SHM208A_Sub068] (puzzle: Sensor for hsa-mir-208a) | – | – | – | 29.9 | 29.5 | 34.6
ACUUGCUUUUUGCUCGUAUAUUGUCCAUUACAUGAGGAUCACCCAUGUGUGUAUUGUGUAUUGUUUUUGAUACGUGC [JR_SHM208A_Sub071] (puzzle: Sensor for hsa-mir-208a) | – | – | – | 243 | 24.4 | 302
ACUUGCUUUUUGCUCGUAUAUUGUCCGUUACAUGAGGAUCACCCAUGUGUGUAUUGUGUGUUGUUUUUGAUACGUGU [JR_SHM208A_Sub070] (puzzle: Sensor for hsa-mir-208a) | – | – | – | 56 | 62.8 | 74.2
AGAAAAGAAAGAAAGGAUAUACAGAAAAGAACAUGAGGAUCACCCAUGUAAGAAGAGGAGGGAGGGUAGAAGGUUCAAGAAAGAA [JR_SS2_Sub017] (puzzle: Same State 2) | – | – | – | 21 | 33 | 19.3
AGAAACAAAGGCUGAAAUAAUACAUGAGGAUCACCCAUGUCACAGGAUAUCCAGAUAAUAUUCGAGGAGAAGGGUGCAGCCAAC [Esanusdiat] (Eterna round: R96, puzzle: Same State NG 3) | 19.1 | 59.6 | 79.7 | – | – | –
AGAAAGAAAACGCAGGAUAUGGAGCAUGAGACAUGAGGAUCACCCAUGUCAAAAGAAAAGAAGAACCAGAAGGGCGGGAAAGAAA [Default title] (puzzle: Same State 2) | – | – | – | 18.5 | 11.7 | 15.6
AGAAGACAUGAGGAUCACCCAUGUACAUAAUGAGGAGAAUGGGAGGAUAUGCAGAGAGAGAGGGAGCAGAAGGUCCAGUAUGAA [Default title] (Eterna round: R96, puzzle: Same State NG 3) | 44.4 | 51.6 | 105 | – | – | –
AGAGGAGGAGCAGGAUAUGCGAAGAAGAACGUGGCAGAAGGGUUCAUGCGAUGACAUGAGGAUCACCCAUGUACCGCGCGAGGA [AK SSNG1-V2-10] (Eterna round: R96, puzzle: Same State NG 1) | 64.4 | 33.9 | 62.6 | – | – | –
AGAUAACAUGAGGAUCACCCAUGUCAACUAAGUCGAGGAUAUGGGCAUAUUAUAUUAGAACCAGAAGGCGAAUAGA [Mat - Same State 1 - Mod of UCT - D45] (puzzle: Same State 1) | – | – | – | 12.6 | 4.03 | 27.9
AGAUCAUGACGAGGAUAUCCGACAUGAGGAUCACCCAUGUAUGUUGGAGGACGCGUACGUCCAAUGGAGAAGGCGUCGUGGUCA [JL SSNG2 1.04] (Eterna round: R96, puzzle: Same State NG 2) | 13.6 | 11.8 | 14.9 | – | – | –
AGAUCAUGACGAGGAUAUGGAACAUGAGGAUCACCCAUGUAUGUUCCAUAACGCGAAUAAAGAAUCCAGAAGGCGUCGUGAUCA [Mat - Same State NG 2 - JL mod - D31] (Eterna round: R96, puzzle: Same State NG 2) | 13.1 | 52.5 | 85.5 | – | – | –
AGAUCAUGACGAGGAUAUGGUACAUGAGGAUCACCCAUGUAUGUAUCAUAACGCGAAUGACGAAUCCAGAAGGCGUCGUGGUCA [JL SSNG2 1.12] (Eterna round: R96, puzzle: Same State NG 2) | 9.94 | 14.7 | 22.7 | – | – | –
AGAUGUUAAUCAGGAUAUGGGCACAUGAGGAUCACCCAUGUAAAGUAGAUACUAUGUGGUCAAGUCUAGAAGGGAUGGCUAACA [SameState NG2 #80] (Eterna round: R96, puzzle: Same State NG 2) | 433 | 282 | 279 | – | – | –
AGAUGUUAAUCAGGAUAUGGGCACAUGAGGAUCACCCAUGUAAAUUCGAUACUAUGUGGAGACGUCUAGAAGGGAUGGCUAACA [SameState NG2 #84] (Eterna round: R96, puzzle: Same State NG 2) | 127 | 82.2 | 137 | – | – | –
AGAUGUUAAUCAGGAUAUGGGCACAUGAGGAUCACCCAUGUAAUUUCGAUACUAUGUGGAGACGUCUAGAAGGGAUGGCUAACA [SameState NG2 #85] (Eterna round: R96, puzzle: Same State NG 2) | 162 | 101 | 134 | – | – | –
